Two proteins from patent US5770691A, “Discriminatory substrates for MMP hydrolysis” (Regents of the University of Minnesota, priority 1995, dated 1998) can be followed below.

What all share (type): biochemical, human
Substrate in series [1]: CCC[C@H](NC(=O)[C@H](C)NC(=O)[C@H](Cc1ccc(O)cc1)NC(=O)[C@@H]1CCCN1C(=O)[C@H](CCCCN)NC(=O)[C@@H]1CCCN1C(=O)[C@H](CCCNC(=N)N)NC(=O)Cc1cc(=O)oc2cc(OC)ccc12)C(=O)N[C@@H](Cc1c[nH]c2ccccc12)C(=O)N[C@@H](CCSC)C(=O)N[C@@H](CCCCNc1ccc([N+](=O)[O-])cc1[N+](=O)[O-])C(N)=O
Kind of series: Fluorometric hydrolysis of synthetic Mca/Lys(Dnp) substrates by MMP-1. As to conditions: other: MMP-1, 37° C., pH 7.5. The text has this:
(§1) All MMPs were purified in zymogen form. ProMMP-1 (Suzuki et al., Biochem., 29, 10261 (1990)), proMMP-2 (Okada et al., Eur. J. Biochem., 194, 721 (1990)), and proMMP-3 (Ito et al., Arch. Biochem. Biophys., 267, 211 (1988)) were purified from the culture medium of human rheumatoid synovial cells stimulated with rabbit macrophage-conditioned medium. ProMMP-9 was purified from the culture medium of HT-1080 cells as described in Morodomi et al., Biochem. J., 285, 603 (1992). ProMMP-2 and proMMP-9 were activated by reacting with 1 mM 4-aminophenylmercuric acetate at 37° C. for 45 minutes and 32 hours, respectively. ProMMP-1 was activated by reacting with 1 mM 4-aminophenylmercuric acetate and an equimolar amount of MMP-3 at 37° C. for 6 hours. After activation, MMP-3 was completely removed from MMP-1 by affinity chromatography using an anti-MMP-3 IgG Affi-Gel 10 column. The resin, Affi-Gel 10 (Biorad, Emoryville, Calif.), was coupled to anti-MMP-3 IgG (Okada et al., Annals of Rheumat. Dis., 48, 645 (1989)) per the manufacturer's protocol. Pro-MMP-3 was activated by reacting with 5 μg/mL chymotrypsin at 37° C. for 2 hours. Chymotrypsin was inactivated with 2 mM diisopropylfluorophosphate. The amounts of active MMP-1, MMP-2, and MMP-3 were determined by titration with tissue inhibitor of metalloproteinase-1(TIMP1) over a concentration range of 0.1-3 μg/mL, while the amount of active MMP-9 was determined by titration with TIMP-2 (0.1-3 μg/mL). TIMP-1 was isolated from the medium of HT-1080 cells as described in Morodomi et al., Biochem J., 285, 603 (1992).
(§2) Substrates were prepared as 10 mM stock solutions in dimethylsulfoxide (DMSO). Fluorescent assays were performed at λex =325 nm and λem =393 nm, which should encounter no interference from Trp residues, using a Hitachi fluorescence spectrophotometer F-3010. Initial total hydrolysis assays were run at a substrate concentration of […] to avoid filtering effects. The change in fluorescence at this concentration was 110 based on total hydrolysis of 1 μM substrate. A typical assay was carried out by incubating 100 μL of various concentrations of a substrate with 10 μL of an enzyme solution (2-20 nM) in 50 mM Tris-HCl, pH 7.5, 0.15M NaCl, 10 mM CaCl2, 0.05% Brij 35, 0.02% NaN3. The reaction was stopped by addition of 900 μl of 3% (v/v) glacial acetic acid. MMP-3 activity at pH 6.0 was measured in 50 mM sodium acetate buffer, pH 6.0, instead of Tris-HCl buffer. The amount of substrate hydrolysis was calculated based on the fluorescence values of the Mca-Arg-Pro-Lys-Pro-Gln standard solution after substraction of the reaction blank value (stopping solution added before the enzyme). Individual kinetic parameters (kcat and KM) were determined over a substrate concentration range of 2.5-75 μM and calculated by double reciprocal plots.

Substrate in series [2]: COc1ccc2c(CC(=O)N3CCC[C@H]3C(=O)N[C@@H](CCCCN)C(=O)N3CCC[C@H]3C(=O)N[C@@H](CCC(N)=O)C(=O)N[C@@H](CCC(N)=O)C(=O)N[C@@H](Cc3ccccc3)C(=O)N[C@@H](Cc3ccccc3)C(=O)NCC(=O)N[C@@H](CC(C)C)C(=O)N[C@@H](CCCCNc3ccc([N+](=O)[O-])cc3[N+](=O)[O-])C(=O)NCC(=O)O)cc(=O)oc2c1
The description is as above. The following applies: other: MMP-1, 37° C., pH 7.5.
Excerpt: as §1, §2

Substrate in series [3]: CCC[C@H](NC(=O)[C@H](C)NC(=O)[C@H](Cc1ccc(O)cc1)NC(=O)[C@@H]1CCCN1C(=O)[C@H](CCCCN)NC(=O)[C@@H]1CCCN1C(=O)[C@H](CCCNC(=N)N)NC(=O)Cc1cc(=O)oc2cc(OC)ccc12)C(=O)N[C@@H](Cc1c[nH]c2ccccc12)C(=O)N[C@@H](CCSC)C(=O)N[C@@H](CCCCNc1ccc([N+](=O)[O-])cc1[N+](=O)[O-])C(N)=O
Kind of series: Fluorometric hydrolysis of synthetic Mca/Lys(Dnp) substrates by MMP-2. As to conditions: other: MMP-2, 37° C., pH 7.5.
Excerpt: as §1, §2

Substrate in series [4]: COc1ccc2c(CC(=O)N3CCC[C@H]3C(=O)N[C@@H](CCCCN)C(=O)N3CCC[C@H]3C(=O)N[C@@H](CCC(N)=O)C(=O)N[C@@H](CCC(N)=O)C(=O)N[C@@H](Cc3ccccc3)C(=O)N[C@@H](Cc3ccccc3)C(=O)NCC(=O)N[C@@H](CC(C)C)C(=O)N[C@@H](CCCCNc3ccc([N+](=O)[O-])cc3[N+](=O)[O-])C(=O)NCC(=O)O)cc(=O)oc2c1
The description is as above. The following applies: other: MMP-2, 37° C., pH 7.5.
Excerpt: as §1, §2

B1: MMP-1 (Homo sapiens) (protein)
chain: FVLTEGNPRWEQTHLTYRIENYTPDLPRADVDHAIEKAFQLWSNVTPLTFTKVSEGQADIMISFVRGDHRDNSPFDGPGGNLAHAFQPGPGIGGDAHFDEDERWTNNFREYNLHRVAAHELGHSLGLSHSTDIGALMYPSYTFSGDVQLAQDDIDGIQAIYGRSQNPVQPIGPQTPKACDSKLTFDAITTIRGEVMFFKDRFYMRTNPFYPEVELNFISVFWPQLPNGLEAAYEFADRDEVRFFKGNKYWAVQGQNVLHGYPKDIYSSFGFPRTVKHIDAALSEENTGKTYFFVANKYWRYDEYKRSMDPGYPKMIAHDFPGIGHKVDAVFMKDGFFYFFHGTRQYKFDPKTKRILTLQKANSWFNCRKN
notes: made in house; host or cells: native secreted protein purified from culture medium of human rheumatoid synovial cells
Usually Km stands for the substrate concentration at which the rate is half of its maximum. Take B1: in series [1], the Km is 142 µM, the kcat stood at 0.15 S^-1 and the kcat/Km is recorded as 1,060 S^-1 M^-1. Also, in series [2], the Km was determined as 16.6 µM, the kcat is 0.04 S^-1 and the kcat/Km is given as 2,510 S^-1 M^-1.

B2: MMP-2 (Homo sapiens) (protein)
chain: YNFFPRKPKWDKNQITYRIIGYTPDLDPETVDDAFARAFQVWSDVTPLRFSRIHDGEADIMINFGRWEHGDGYPFDGKDGLLAHAFAPGTGVGGDSHFDDDELWTLGEGQVVRVKYGNADGEYCKFPFLFNGKEYNSCTDTGRSDGFLWCSTTYNFEKDGKYGFCPHEALFTMGGNAEGQPCKFPFRFQGTSYDSCTTEGRTDGYRWCGTTEDYDRDKKYGFCPETAMSTVGGNSEGAPCVFPFTFLGNKYESCTSAGRSDGKMWCATTANYDDDRKWGFCPDQGYSLFLVAAHEFGHAMGLEHSQDPGALMAPIYTYTKNFRLSQDDIKGIQELYGASPDIDLGTGPTPTLGPVTPEICKQDIVFDGIAQIRGEIFFFKDRFIWRTVTPRDKPMGPLLVATFWPELPEKIDAVYEAPQEEKAVFFAGNEYWIYSASTLERGYPKPLTSLGLPPDVQRVDAAFNWSKNKKTYIFAGDKFWRYNEVKKKMDPGFPKLIADAWNAIPDNLDAVVDLQGGGHSYFFKGAYYLKLENQSLKSVKFGSIKSDWLGC
notes: as for B1
Turning to B2, in series [3], the Km was determined as 50 µM, the kcat turned out to be 2.70 S^-1 and the kcat/Km is given as 54,000 S^-1 M^-1. For the same protein, in series [4], the Km worked out at 100 µM, the kcat came to 1.07 S^-1 and the kcat/Km was 10,800 S^-1 M^-1.
